Test results reported in the DeepSol protein solubility set.

experiment: soluble on expression in E. coli; label from the status in PepcDB or PDB records

| Sequence | soluble on expression in E. coli |
| --- | --- |
| MDFNLNDEQELFVAGIRELMASENWEAYFAECDRDSVYPERFVKALADMGIDSLLIPEEHGGLEAGFVTVAAVWMELGRLGAPTYVLYQLPGGFNTFLREGTQEQIDKIMAFRGTGKQMWNSAITEPGAGSDVGSLKTTYTRKNGKVYLNGSKCFITSSAYTPYIVVMARDGASPDKPVYTEWFVDMSKAGIKVNKLEKLGLRMDSCCEITFDDVELDEKDMFGREGNGFNRVKEEFDHERFLVALTNYGTAMCAFEDAARYANQRVQFGEAIGRFQLIQEKFAHMAIKLNSMKNMLLEAAWKADNGTITSGDAAMCKYFCANAAFEVVDTAMQVLGGVGIAGNHRITRFWRDLRVDRVSGGSDEMQILTLGRAVLKQYR | not soluble |
| MISVVGAGGKTSLLFWLAELLQASGRRVLITTTTHMFMPTSHWPVVFCRDPAMLPHASLTSPISFCFHSWKANQGKVQGFTPEAIDALVQRPECDVILIEADGSRGMPLKAPDEHEPCIPKSSCCVIAVMGGHTLGAKVSTENVHRWSQFADITGLTPDATLQLSDLVALVRHPQGAFKNVPQGCRRVWFINRFSQCENAIAQSELLQPLQQHDVEAIWLGDIQEHPAIARRFVNLEHHHHHH | not soluble |
| MGHHHHHHSHMHGECVKEEKDFLKKEIVDDTKVKEEPPINHPVGCKRKLAMSRCETCGTEEAKYRCPRCMRYSCSLPCVKKHKAELTCNGVRDKTAYISIQQFTEMNLLSDYRFLEDVARTADHISRDAFLKRPISNKYMYFMKNRARRQGINLKLLPNGFTKRKENSTFFDKKKQQFCWHVKLQFPQSQAEYIEKRVPDDKTINEILKPYIDPEKSDPVIRQRLKAYIRSQTGVQILMKIEYMQQNLVRYYELDPYKSLLDNLRNKVIIEYPTLHVVLKGSNNDMKVLHQVKSESTKNVGNEN | not soluble |
| MDFKTVMQELEALGKERTKKIYISNGAHEPVFGVATGAMKPIAKKIKLNQELAEELYATGNYDAMYFAGIIADPKAMSESDFDRWIDGAYFYMLSDYVVAVTLSESNIAQDVADKWIASGDELKMSAGWSCYCWLLGNRKDNAFSESKISDMLEMVKDTIHHSPERTKSAMNNFLNTVAISYVPLHEKAVEIAKEVGIVEVKRDNKKSSLLNASESIQKELDRGRLGFKRKYVRC | soluble |
| MSLQKLAFSYVRFSSLKQRHGDSLKRQTDMVANWLLANPEYKLSGETSYQDLGKSGFSGAHLDNAFGRLLAAIENGAIPKGSAILIEQIDRAGRMEPMEMLPLLSRIVNAGVDLVTLDDGITYDRASVNSNHLFLLVAKVQQAHQYSDSLSRRLRAAYQTKRAKAAAGEGATRRMPLWIRDGKLRDDIAPFVTQVFEDYAAGIGERRILGRLKGQHPDFETISPSTFRRWLRNPVAVGRWNDIEDVWPAVVSKELWFRVQKRLTDGVKPKAASSKYLLSGLVKCARCGKNYCVGGQKGALTMLCVSRHRFGSGAGGCTNKRSIPYAVFDFIRSQTAHAALVRASQSQNLTASEKRQIEIDGELIELRKQSSHAAEGLVRYGMVKEITDVLDRVTDQIDRLEKERVMLQAVPAPATLDDMIDVENDLLDDDIVKLNALLQGVGYEMVVDDRTIVVCEASVFSTLQSQTYRYIGADRVTGTYKVTANDEVLHHLPNLDSKVQQDEYAEFLKKEARYESGELKRDEFRFNLETGEINREGHHHHHH | not soluble |
| MKLIGIVGSNADSSYNRLLLQYIGKEFYKMFDLEILEIKDIPMFNQSKDQTNSVLIQNMNRKILQADGVIIATPEHNHTIPAGLKSVLEWLSFKIHPLENKPVMIVGCSYYDQGTSRAQLHLRQILDAPGVNAIVMPGNEFLLGKAKEAFDENGNLIAEGTRQFLESTLQKFVEFIDVISKLEGAKPKDLPEDLHAKGTIETTIEGVDMAADDWVEQAAEAVQAVEGDTYVKLDRGILTVDQLNYFLKSMPMELTYADSNNQFLYYNKKMAAEEMFAKRQPGQVGNPLANCHPPKALKNVEWVIQQLRSGKTDAIRVHVPMHGPDTYVVHNYQAMYDDNGNYAGINEYILDFKPIVDWYLKQTGQELVGGKNVDAVSGASKKEAPETADSVSSASVHEEESATEKPTVDSVSSASIKE | not soluble |
| MKIPASSPQDTTNNNNNTNSTDSNHLSMDEHVMRSMDWDSIMKELELDDDSAPNSLKTGFTTTTTDSTILPLYAVDSNLPGFPDQIQPSDFESSSDVYPGQNQTTGYGFNSLDSVDNGGFDFIEDLIRVVDCVESDELQLAQVVLSRLNQRLRSPAGRPLQRAAFYFKEALGSFLTGSNRNPIRLSSWSEIVQRIRAIKEYSGISPIPLFSHFTANQAILDSLSSQSSSPFVHVVDFEIGFGGQYASLMREITEKSVSGGFLRVTAVVAEECAVETRLVKENLTQFAAEMKIRFQIEFVLMKTFEMLSFKAIRFVEGERTVVLISPAIFRRLSGITDFVNNLRRVSPKVVVFVDSEGWTEIAGSGSFRREFVSALEFYTMVLESLDAAAPPGDLVKKIVEAFVLRPKISAAVETAADRRHTGEMTWREAFCAAGMRPIQQSQFADFQAECLLEKAQVRGFHVAKRQGELVLCWHGRALVATSAWRF | soluble |
| MKKVAIVGLGWLGMPLAMSLSARGWQVTGSKTTQDGVEAARMSGIDSYLLRMEPELVCDSDDLDALMDADALVITLPARRSGPGDEFYLQAVQELVDSALAHRIPRIIFTSSTSVYGDAQGTVKETTPRNPVTNSGRVLEELEDWLHNLPGTSVDILRLAGLVGPGRHPGRFFAGKTAPDGEHGVNLVHLEDVIGAITLLLQAPKGGHIYNICAPAHPARNVFYPQMARLLGLEPPQFRNSLDSGKGKIIDGSRICNELGFEYQYPDPLVMPLE | soluble |
| MAYDIERYLDIRGAGDPTYGPTGELAFTLGTTGTAQVWALGAPGAWPTQLTFHDERVQWASFSPTREELAYGMDTGGDEFTQLHRVSGDGSEDVQLTAFPDAKHDWGGWSHDGDRIAYTANRRDASRFDVYVQGRDEAGANADCVRVGDTFDLPSVVGWSPSDDRLLVVDTHSNFDQDVAVLDVDTGEITRATAGLDADTRFSWVAWAPDGGGVYVTTDHDADTRYLGLLDPETGAISRVADGGDWPIEAVVTAHDAGRLAYVRNRDGYSELTIADAAGTTLTEQPTPELPDGVIRGLSWGPDGDTLAVVVSAATENPNVFVVDVATGAATQWTNAATAGIPKSTFREPELVRYETFDGREIPALFTRPDGDGPHPVIVDFHGGPEGQRRPSFLSLRQYFVDNGYAVFEPNVRGSSGYGATYMNLDNVRNRMDAVADGKAGVEWLTARTDIDADRVVAYGGSYGGFMVLASLTEYPELWAAGVDIVGIANFVTFLENTGDWRREHRESEYGSLDADREFLESISPTNNADRIRAPLLVLHGANDPRVPVGEAERIVEQASAHVPVEKHVFDDEGHGFSKRANKQAAYRAVVDFLDDHALEHHHHHH | not soluble |
| MAHHHHHHMTRPRLTSAPRGSALKEAISAHQALRNAVAQEQSALDDELKKNEQILAEHEQLMRDWSCDKEGVLATIQKMKEKIAENESKTTEARAEVKQNEEIVKRLHARNEEYEPRLEASAIEIAERLKKREEEEKEMREQLLTFQIACQEREQQYRDQIHKLEETNAQEAVDHQQKVQQLRSKIAEVEATMEEERRAWVVETEMRKQQRLIERHKFFTEEAEEARKGKEACAAIMKEASALRMDSNLLTSLDDLLCC | not soluble |
| MGSSHHHHHHSSGLVPRGSHMEGRLLLLETPGNTRMSLAYDEAIYRSFQYGDKPILRFYRHDRSVIIGYFQVAEEEVDLDYMKKNGIMLARRYTGGGAVYHDLGDLNFSVVRSSDDMDITSMFRTMNEAVVNSLRILGLDARPGELNDVSIPVNKKTDIMAGEKKIMGAAGAMRKGAKLWHAAMLVHTDLDMLSAVLKVPDEKFRDKIAKSTRERVANVTDFVDVSIDEVRNALIRGFSETLHIDFREDTITEKEESLARELFDKKYSTEEWNMGLLRKEVV | soluble |
| MSNNNLSVISLVSIGEHPTSRRPRRAEQDARAIELGLKLVGDNLQTLHAGELSDDASQQTALRSYLGMGLAEINLLEMPENADAVLVIAEYLKQQKIDIILTGVCAESGESSGMLPYLLAEQLGMAMVTSIAEILSIDEVNKQAEVLQALPRGQRRKLKVDLPFIASVDMAAALPRQSAFGPAMRGQFEATLGANFTDEESSTWQTADAKKRPKRLKIIKAKTAADRFKAATAKASGGGGKVVHGVEESAQAILDLLIEEGLV | not soluble |
| SMEEKLKKTNIIFVVGGPGSGKGTQCEKIVQKYGYTHLSTGDLLRSEVSSGSARGKKLSEIMEKGQLVPLETVLDMLRDAMVAKVNTSKGFLIDGYPREVQQGEEFERRIGQPTLLLYVDAGPETMTQRLLKRGETSGRVDDNEETIKKRLETYYKATEPVIAFYEKRGIVRKVNAEGSVDSVFSQVCTHLDALLN | soluble |
